Where “and” joins values, the source holds several entries; their conditions need not be identical. Equal values may be shown once.
Tests used:
[1] = target: human leucine-rich repeat kinase 2 (LRRK2), full-length, recombinant (human) (UniProt Q5S007); experiment: cryo-EM structure
[2] = target: human leucine-rich repeat kinase 2 (LRRK2), full-length, recombinant (human, UniProt Q5S007 1-2527, R50H | S1647T | M2397T); experiment: cryo-EM structure
Sequence of human leucine-rich repeat kinase 2 (LRRK2), full-length, recombinant (Q5S007 whole entry R50H/S1647T/M2397T): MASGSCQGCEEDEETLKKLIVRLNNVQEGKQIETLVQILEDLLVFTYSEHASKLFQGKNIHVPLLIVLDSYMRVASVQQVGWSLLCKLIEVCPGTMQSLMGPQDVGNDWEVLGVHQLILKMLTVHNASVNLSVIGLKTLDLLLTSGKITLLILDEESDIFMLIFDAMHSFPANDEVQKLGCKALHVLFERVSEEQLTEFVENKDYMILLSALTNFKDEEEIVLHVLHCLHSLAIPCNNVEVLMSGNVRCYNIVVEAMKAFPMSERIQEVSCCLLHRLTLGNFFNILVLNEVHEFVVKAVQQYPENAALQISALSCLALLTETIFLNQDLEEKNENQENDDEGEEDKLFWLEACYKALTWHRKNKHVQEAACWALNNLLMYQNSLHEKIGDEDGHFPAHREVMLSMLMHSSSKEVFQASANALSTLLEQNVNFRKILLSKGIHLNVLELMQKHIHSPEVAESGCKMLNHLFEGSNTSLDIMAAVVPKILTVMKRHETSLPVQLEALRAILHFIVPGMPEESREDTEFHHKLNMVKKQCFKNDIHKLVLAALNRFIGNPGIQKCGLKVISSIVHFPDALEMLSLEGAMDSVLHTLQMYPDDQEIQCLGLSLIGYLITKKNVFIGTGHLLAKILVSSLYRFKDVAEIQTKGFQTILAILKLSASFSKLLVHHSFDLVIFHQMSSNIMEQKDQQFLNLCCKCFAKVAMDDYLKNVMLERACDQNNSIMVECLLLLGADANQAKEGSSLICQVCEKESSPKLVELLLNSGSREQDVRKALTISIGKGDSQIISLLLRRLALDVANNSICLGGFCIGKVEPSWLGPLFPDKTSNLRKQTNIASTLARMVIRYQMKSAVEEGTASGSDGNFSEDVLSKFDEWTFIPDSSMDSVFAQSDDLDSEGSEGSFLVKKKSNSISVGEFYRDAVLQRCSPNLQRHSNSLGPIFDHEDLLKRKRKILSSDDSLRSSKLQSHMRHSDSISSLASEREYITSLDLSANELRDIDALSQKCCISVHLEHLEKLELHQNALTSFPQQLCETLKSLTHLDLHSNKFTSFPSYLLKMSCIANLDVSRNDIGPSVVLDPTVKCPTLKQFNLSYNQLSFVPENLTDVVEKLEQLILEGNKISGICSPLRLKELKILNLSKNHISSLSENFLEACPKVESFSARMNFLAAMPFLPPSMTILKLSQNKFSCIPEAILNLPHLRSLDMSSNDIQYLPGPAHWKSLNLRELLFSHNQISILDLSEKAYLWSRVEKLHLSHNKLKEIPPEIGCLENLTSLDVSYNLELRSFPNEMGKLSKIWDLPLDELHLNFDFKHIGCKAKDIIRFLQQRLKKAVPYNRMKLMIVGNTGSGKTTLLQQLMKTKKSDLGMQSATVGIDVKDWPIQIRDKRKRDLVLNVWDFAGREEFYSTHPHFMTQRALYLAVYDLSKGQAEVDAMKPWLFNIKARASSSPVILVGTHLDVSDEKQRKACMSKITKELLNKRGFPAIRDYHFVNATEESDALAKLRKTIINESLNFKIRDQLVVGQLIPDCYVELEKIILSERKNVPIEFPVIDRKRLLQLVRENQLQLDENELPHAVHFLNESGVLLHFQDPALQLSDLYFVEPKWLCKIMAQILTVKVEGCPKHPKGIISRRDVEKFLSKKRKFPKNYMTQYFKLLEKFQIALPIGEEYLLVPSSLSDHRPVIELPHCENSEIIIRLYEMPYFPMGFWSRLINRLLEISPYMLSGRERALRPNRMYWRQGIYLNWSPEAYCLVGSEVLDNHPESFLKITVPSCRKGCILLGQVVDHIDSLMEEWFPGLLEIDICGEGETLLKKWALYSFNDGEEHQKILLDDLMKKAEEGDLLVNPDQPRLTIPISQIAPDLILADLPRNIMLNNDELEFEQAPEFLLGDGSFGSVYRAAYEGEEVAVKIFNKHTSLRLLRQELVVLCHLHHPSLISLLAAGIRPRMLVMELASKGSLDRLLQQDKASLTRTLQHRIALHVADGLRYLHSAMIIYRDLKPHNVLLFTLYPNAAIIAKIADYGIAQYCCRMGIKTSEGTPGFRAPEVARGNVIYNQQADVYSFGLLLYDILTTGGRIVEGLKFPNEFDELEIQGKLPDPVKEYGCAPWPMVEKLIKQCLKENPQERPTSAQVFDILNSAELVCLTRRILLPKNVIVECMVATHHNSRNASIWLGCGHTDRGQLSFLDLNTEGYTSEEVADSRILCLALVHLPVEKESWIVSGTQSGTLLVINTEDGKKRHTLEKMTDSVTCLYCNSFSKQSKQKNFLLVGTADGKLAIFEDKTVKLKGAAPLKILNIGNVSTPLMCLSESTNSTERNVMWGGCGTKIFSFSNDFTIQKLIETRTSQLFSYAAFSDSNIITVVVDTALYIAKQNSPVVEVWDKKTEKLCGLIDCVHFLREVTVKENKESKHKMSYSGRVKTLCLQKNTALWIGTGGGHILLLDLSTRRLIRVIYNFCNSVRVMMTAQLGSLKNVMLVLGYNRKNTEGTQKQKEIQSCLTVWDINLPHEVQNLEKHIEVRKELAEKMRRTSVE

stoichiometry N (LRRK2 protomers) [1] | stoichiometry N [2] [Rab29 per LRRK2] | Molecule
2 and 4 |  | human leucine-rich repeat kinase 2 (LRRK2), full-length, recombinant, Q5S007 1-2527
 | 1 | Rab29 (residues 1-177) Q67L/T71A/S72A, GST tag removed (domain or fragment, human, UniProt O14966 1-177, looked up) MGSRDHLFKVLVVGDAAVGKTSLVQRYSQDSFSKHYKSTVGVDFALKVLQWSDYEIVRLQLWDIAGLERFAAMTRLYYRDASACVIMFDVTNATTFSNSQRWKQDLDSKLTLPNGEPVPCLLLANKCDLSPWAVSRDQIDRFSKENGFTGWTETSVKENKNINEAMRVLIEKMMRNS

— publication doi:10.1101/2022.04.26.489605 (bioRxiv, 2022)
